Test results published in paper PMC10720262 (2023).

target: PfCSP full length (Plasmodium falciparum (isolate NF54), UniProt P19597); assay: ELISA AUC
Sequence (P19597 20-375): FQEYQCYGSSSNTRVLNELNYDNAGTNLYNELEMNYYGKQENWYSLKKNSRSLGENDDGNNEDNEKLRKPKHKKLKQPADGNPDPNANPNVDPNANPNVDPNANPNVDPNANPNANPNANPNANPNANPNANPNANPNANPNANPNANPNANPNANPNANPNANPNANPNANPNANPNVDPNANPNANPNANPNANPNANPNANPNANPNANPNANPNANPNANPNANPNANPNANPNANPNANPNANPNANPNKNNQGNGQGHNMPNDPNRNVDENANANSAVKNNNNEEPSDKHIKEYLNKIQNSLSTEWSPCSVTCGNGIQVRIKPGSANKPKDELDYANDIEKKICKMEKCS

Row | Binder | binding score
1 | CL-464277 (antibody, V domains shown, peptides N-terminally acetylated and C-terminally amidated) VH: QVQLVASGGGVVQPGRSLRLSCAVSGFTFRNYGMHWVRQDPGRGLEWVAIIWYDGSYKFYADSVKGRFTISRDNSKNTLYLQMNSLRAEDTAVYYCARSYGSLTGDQTKYGMDVWGQGTTVSVSS VL: not shown | 2.5
2 | CL-444906 (antibody, V domains shown, peptides N-terminally acetylated and C-terminally amidated) VH: QVQLVESGGGVVQPGRSLRLSCTASGFTFSTYGMHWVRQAPGKGLEWVAIIWYDGSNKFYADSVKGRFTISRDNSKDTLYLQMNSLRAEDTAIYYCARAWDKVDDKYGMDVWGQGTTVTVSS VL: not shown | 2.6
3 | CL-510484 (antibody, V domains shown, peptides N-terminally acetylated and C-terminally amidated) VH: QVQLVESGGGVVQPGRSLRLSCAASGFTFSNYGMNWVRQAPGKGLEWMAVIWYDGSNKYYGDSVKGRFTISRDNSKNTLYLQMISLRAEDTAVYFCAKSGEFYGSGSHFDYWGQGTLVTVSS VL: not shown | 2.03
4 | CL-442127 (antibody, V domains shown, peptides N-terminally acetylated and C-terminally amidated) VH: QAQLVESGGGVVQPGKSLRLSCAASRFTFRNYGMHWVRQGPVKGLEWVALIWHDGSNKFYSDSVRDRFTISRDNSKNKLFLQMNSLTADDTALYYCVRSNYDGSGTYGWFGPWGQGTLVTVSS VL: EIVLTQSPGTLSLSPGERATLSCRASQSVISNYLAWYQQKPGQAPRLLIYGASTRDIGIPDRFSGSGSGTDFTLTISRLEPEDFAVYFCHQYGSSFTFGPGTKVDFK | 2.3
5 | CL-509940 (antibody, V domains shown, peptides N-terminally acetylated and C-terminally amidated) VH: QVQLVESGGGVVQPGRSLRLSCAASGFTFSTYGMHWVRQAPGKGLEWVAVIWYDGSIKFYADSVKGRFTISRDDSKNTLYLQMNSLRAEDTAVYYCARDGGYSDSGRFGWFDPWGQGNLVTVSS VL: EIVMTQSPVTLSVSPGERVTLSCRASQSVSSNLAWYQQKPGQAPRLLIYGASNRATGIPDRFSGSGSGTEFSLTVTSLQSEDFAVYYCQQYNQWRTFGQGTKVEIR | 2.09
6 | Ky15.10 (antibody, V domains shown, peptides N-terminally acetylated and C-terminally amidated) VH: QVQLVESGGGVVQPGRSLRLSCAASGFTFSNSGMHWVRQVPGKGLEWVAIIWYDGSNKYYADSVKGRFSVSRDNSENTLYLQMSNLRAEDTAVYYCVRAYFDSENLYDYYGMDVWGQGTTVTVSS VL: DIQMTQSPSTLSASVGDRVTITCRASQSISRWLAWFQKKPGKAPKLLIYTASNLESGVPSRFSGSGSGTEFTLTISSLQPDDFATYYCQQYYNYWTFGQGTKVEVK | 2.17
7 | CL-440324 (antibody, V domains shown, peptides N-terminally acetylated and C-terminally amidated) VH: QVQLVESGGGVVQPGRSLRLSCAASGFTFRNHGLHWVRQAPGKGLEWVAIIWFDGSNKFYADSVKGRFTISRDNSKNTLYLQMNSLRAEDTAIYYCARVSSHDNGDYGDFDYWGQGTLVTVSS VL: DIQMTQSPSTLSASVGDRVTITCRASQNISNWLAWYQQKPGKAPKLLIYKASSLESGVPSRFSGSGSGTEFTLTISGLQPDDFATYYCQQYKTYWTFGQGTQVEIK | 2.6
8 | CL-512870 (antibody, V domains shown, peptides N-terminally acetylated and C-terminally amidated) VH: QVQLVESGGGVVQPGRSLRLSCEASGFTFSHYGMHWVRQAPGRGLEWVAIIWYDGSNTYYRDSVKGRFTISRDNSKDTLFLQMNSLRPDDTAVYYCARALYYDSGSLFDFWGQGTLVTVSS VL: DIQMTQSPSTLSASVGDRVTITCRASQSISSWLAWYQQKPGKAPKLLIYKASSLETGVPSRFSGSGFGTEFTLSISSLQPDDFATYYCLQYNIYWTFGQGTKVEIK | 2.23
9 | CL-512264 (antibody, V domains shown, peptides N-terminally acetylated and C-terminally amidated) VH: QVQLVESGGGVVQPGRSLRLSCVTSGFTFSNFGMHWVRQAPGKGLEWVAIIWYDGSNKFYADSLKGRFTISRDNSKNTLFLQMNSLRAEDTAVYYCARAHTVTTANDKYGTDVWGQGTTVTVSS VL: DIQMTQSPSTLSASVGDRVTITCRASQSISSWLAWYQHKPGKAPKLLIYKASSLESGVPSRFSGSGSGTEFTLTISSLQPDDFATYFCQQYNSYWTFGQGTKVEIK | 2.54
10 | CL-514146 (antibody, V domains shown, peptides N-terminally acetylated and C-terminally amidated) VH: QVQLVESGGGVVQPGRSLRLSCAVSGFTFSNSGMHWVRQAPGKGLEWVAIIWYDGNNKFYADSVKGRFTISRDNSKNTLYLQMNSLRAEDTSIYYCARAYPSGNYGDKYGMDVWGQGTTVTVSS VL: DIQMTQSPSTLSASVGDRVTITCRASQSISSWLAWFQQKPGNAPKLLIYKASSLESGVPSRFSGSGSGTEFTLTINSLQPDDFATYYCQQYNSFWTFGQGTKVEIK | 2.39
11 | CL-513780 (antibody, V domains shown, peptides N-terminally acetylated and C-terminally amidated) VH: QVQLVESGGGVVQPGRSLRLSCTASGFIFSNYGMYWVRQAPGKGLDWVALIWYDGSNKYYVGSVKGRFTISRDNSKNTLYLQMNSLRAEDTAVYYCARAGKYSGSGSYLDSWGQGTLVTVSS VL: DIQMTPSPSILSASVGDRVTITCRASQNISSWLAWYQQKPGKAPKLLIYKASSLESGVPSRFSGSGSGTEFTLTISSLQPDDFATYFCQQYYSYWTFGQGTKVEIK | 2.48
12 | CL-510416 (antibody, V domains shown, peptides N-terminally acetylated and C-terminally amidated) VH: QVQLVESGGGVVQPGRSLRLSCEASGFTFSNYGMHWVRQGPGKGLEWVALMWYDGSNKYYSDSVKGRFTISRDNSKSTLYLQMNSLRAEDTAVYYCARPITGNTHSKYTMDVWGQGTTVTVSS VL: DIQMTQSPSTLSASVGDRVTITCRASQSISSWLAWYQQKPGKAPKLLIYKASTLESGVPSRFSGSGSGTEFTLTISSLQPDDFATYFCQQYNSYWTFGQGTKVEIK | 2.57
13 | CL-513274 (antibody, V domains shown, peptides N-terminally acetylated and C-terminally amidated) VH: QVQLVESGGGVVQPGRSLRVSCAASGFTFSNYGMYWVRQAPGKGLEWVALIWHDGSNKFYEDSVKGRFTISRDNSKNTLYLQMNSLRAEDTAVYYCARAGYFQGSGSFLDYWGQGTLVTVSS VL: DIQMTQSPSTLSASVGDRVTITCRASQSISTWLAWYQQKPGKAPKLLIYKASSLESGVPSRFSGSGSGTEFTLTISSLQPDDFATYFCQQYSSYWTFGQGTKVEIK | 2.23
14 | CL-444424 (antibody, V domains shown, peptides N-terminally acetylated and C-terminally amidated) VH: QVQLVESGGGVVQPGRSLRLSCTASGFTFSNYGMHWIRQAPGKGLEWVAIIWFDGSSQYYADSVKGRFTISRDNSKNTLYLQMNSLRAEDTAVYYCVRALYDSGSLFDFWGLGTLVTVSS VL: DIQMTQSPSTLSASVGDRVTITCRASQNISSLLAWYQQKPGKAPKLLIYKASSLESGVPSRFSGNGSGTEFTLTVSSLQPDDFATYSCLQYNNYWTFGQGTKVEIK | 2.3
15 | CL-440422 (antibody, V domains shown, peptides N-terminally acetylated and C-terminally amidated) VH: QVQLVESGGGVVQPGRSLRLSCAASGFTFSNFGMHWVRQTPDRGLEWVAIIWFDGSNTFYTDSVKGRFTISRDNYMNTLYLQMNSLRAEDTAVYYCARSFYSDSAGSLFDYWGQGTLVTVSS VL: DIQMTQSPSTLSASVGDRVTITCRASQNINNWVAWYQQKPGKAPKLLIYKASDLETGVPSRFSGSGSGTEFTLTISGLQPDDFATFYCLQNNHYWTFGQGTKVEIK | 2.5
16 | CL-445827 (antibody, V domains shown, peptides N-terminally acetylated and C-terminally amidated) VH: QVQLVASGGGVVQPGRSLRLSCVASGFTFSFFGMHWVRQTPGRGLEWVAIIWYDGGHKFYADSVKGRFTISRDNSKDTLYLQMNSLRAEDTAVYYCARAEDNMARGNIDYSKYGMDVWGQGTTVTVSS VL: DIQMTQSPSTLSVSIGDRVTITCRASQSISTWLAWYQQKPGKAPKLLIYKASNLESGVPSRFSGSGSGTDFTLTISGLQPDDFATYYCQQYFSYWTFGQGTKVEIK | 2.5
17 | CL-515284 (antibody, V domains shown, peptides N-terminally acetylated and C-terminally amidated) VH: QVQLVGSGGGVVQSGRSLRLSCAASGFTFSNFGMHWVRQTPDKGLEWLAIIWYDGSHKFYVDSVKGRFTISRDNSMNTLFLQMNSLRAEDTGVYYCVRSWNYADSKYGMDVWGQGTTVTVSS VL: DIQMTQSPSTLSASVGDRVTITCRASQSISSWLAWYQQKPGKAPNLLIYKASSLESGVPSRFSGSGSGTEFTLTISSLQPDDFATYYCQQYYNYWTFGQGTKVEIK | 2.19
